Laboratory results as given in patent US20180017572A1.

Molecular target: complement factor C1q (UniProt P02745)
Assay: flow cytometry: BT-474 cells with 10 µg/mL antibody, then 10 µg/mL C1q, detected with PE-labeled anti-C1q antibody

Sequence of complement factor C1q (P02745 23-245 limits assumed, chain 1 of 3): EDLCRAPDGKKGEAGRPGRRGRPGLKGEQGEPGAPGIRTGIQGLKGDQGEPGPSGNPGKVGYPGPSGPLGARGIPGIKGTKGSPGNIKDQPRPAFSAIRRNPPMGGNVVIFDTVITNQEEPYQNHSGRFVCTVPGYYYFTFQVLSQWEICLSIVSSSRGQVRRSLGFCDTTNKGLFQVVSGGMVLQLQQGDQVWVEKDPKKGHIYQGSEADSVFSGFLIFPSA
Sequence of complement factor C1q (P02746 28-253 limits assumed, chain 2 of 3, further chain): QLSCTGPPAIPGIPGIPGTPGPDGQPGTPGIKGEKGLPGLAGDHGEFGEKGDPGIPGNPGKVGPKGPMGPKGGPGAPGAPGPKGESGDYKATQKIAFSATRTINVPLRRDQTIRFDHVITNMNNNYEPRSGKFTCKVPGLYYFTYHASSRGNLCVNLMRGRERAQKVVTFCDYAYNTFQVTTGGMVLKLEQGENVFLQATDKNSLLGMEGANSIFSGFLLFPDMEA
Sequence of complement factor C1q (P02747 29-245 limits assumed, chain 3 of 3, further chain): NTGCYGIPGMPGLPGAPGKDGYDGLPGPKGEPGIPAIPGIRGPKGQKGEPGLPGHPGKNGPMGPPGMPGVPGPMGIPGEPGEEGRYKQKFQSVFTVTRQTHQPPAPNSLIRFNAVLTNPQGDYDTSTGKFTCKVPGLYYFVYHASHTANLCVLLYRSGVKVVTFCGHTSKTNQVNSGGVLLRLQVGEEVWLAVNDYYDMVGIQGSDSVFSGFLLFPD

With “combination of trastuzumab and pertuzumab (from UniProt P0DOX5 2-449; P0DOX5 2-449)” as the substance, how does the PE-signal (geomean) (geomean PE-signal) read?
The PE-signal (geomean) (geomean PE-signal) was 2160.
